Measured values published in article PMC11852706, “Discovery of three novel neutralizing antibody epitopes on the human astrovirus capsid spike and mechanistic insights into virus neutralization” (Journal of Virology, 2025).

T1: HAstV1 capsid spike, histidine-tagged (Human astrovirus 1 (HAstV1), GenBank …)
T1 construct: also called HAstV1 spike; histidine-tagged HAstV1 spike
T1 chain: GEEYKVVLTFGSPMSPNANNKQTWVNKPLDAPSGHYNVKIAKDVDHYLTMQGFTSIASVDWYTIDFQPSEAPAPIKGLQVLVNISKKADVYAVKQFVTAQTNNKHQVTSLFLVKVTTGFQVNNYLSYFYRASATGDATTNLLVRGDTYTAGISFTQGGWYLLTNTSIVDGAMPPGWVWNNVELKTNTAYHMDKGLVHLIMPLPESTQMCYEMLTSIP

B1: Fab 3H4 (Fab, V domains shown)
VH: QVQLKESGPGLVAPSQSLSISCTVSGFSLTTFGIHWIRQPPGKGLEWLGVIWAAGTTNYNSTLKSRLTITKDNSRSQVFLKMNSLQTYDTAIYYCVREDYDYFFGLDYWGQGTSVTVSS
VL: QAVVTQESALTTSPGETVTLTCRSSTGAVTTSNYASWVQEKPDHLFIGLIGGTNNRAPGVPARFSGSLIGDKAALTITGAQTDDEAIYFCALWFSNHWVFGGGTKLTVL
notes: source: CHO-S, electroporated, purified from supernatant (StrepTrap HP)
B2: Fab 3B4 (Fab, V domains shown)
VH: QVQLHQPGAELVKPGASVNLSCKASGYTFTSYWMHWVKQRPGQGLEWIGEINPSSGRANYNEKFKNKATLTVDKSSITAYMHLSSLTSEDSAVYYCHWDYYAMDYWGQGTSVTVSS
VL: DIVLTQSPATLSVTPGDSVSLSCRASQSISNNLHWYQQKSHESPRLLFKSASQSISGIPSRFSGSGSGTDFTLSINSVETEDFGMYFCQQTNSWPLTFGTGTKLDLK
notes: as for B1

How the values were obtained:
[1] = target: T1, HAstV1 capsid spike, histidine-tagged; assay: BLI; histidine-tagged HAstV1 spike (0.5 ug/mL) loaded on Anti-Penta-His (HIS1K) biosensors; Fab in solution (3H4: 2.5, 5, 10, 20 nM; 3B4: 20, 40, 80, 160 nM); Octet Kinetics Buffer (PBS pH 7.4 + 0.1% BSA + 0.02% Tween 20); association 180 s, dissociation 600 s; global 1:1 fit; average of three replicates; settings: both partners purified
[2] = target: HAstV1 capsid spike, biotinylated (human astrovirus 1 (HAstV1)) (UniProt O12792); assay: BLI; competition: biotinylated HAstV1 spike (0.5 ug/mL) on streptavidin biosensors, saturated with 150 nM Fab 3H4 or 250 nM Fab 3B4 for 600 s, then dipped into 2 uM FcRn for 300 s; Octet Kinetics Buffer; FcRn shift normalised to FcRn on spike without Fab (100%) and to self-Fab control (0%); triplicate

Binder | Kd [1] | FcRn binding (%) left on spike saturated with the Fab [2]
B1 | 0.49 nM | 4%
B2 | 11.8 nM | 40%
